Experiment [1] addresses EGFR on human tumour cells (A431, NCI-H1975, HCC827) (human) (UniProt P00533). The experiment can be described thus: cell-based or functional assay.
The target of experiment [2] is T1, Cynomolgus monkey cMET (recombinant, soluble monomeric) (cynomolgus monkey, UniProt A0M8R7 25-932 (Papio anubis entry)).
T1 construct: also called cyno c-Met
The experiment in a line: ELISA, antigen coated at 1 ug/mL, anti-human Fab-HRP detection, A450. Here is the method: (§1) Specificity for EGFR and cMET species paralogs and closely related family members was determined by ELISA. Briefly, antigen solutions were prepared in PBS at 1 μg/mL and 50 microliters was coated onto half area ELISA assay plates. Plates were washed and blocked with 1% BSA in PBS containing 0.005% Tween-20 (PBS-T) for one hour at room temperature. […] Wells were incubated with 50 microliters of the indicated primary antibodies diluted in PBS-T in a 1:3 dilution series, starting at 10 μg/mL and ending at 0.002 ug/mL, except for the HER4 binding mAb control, MAB1131, for which the series started at 1 μg/mL. The wells were washed 4 times in PBS-T, then 50 μl of goat anti-human Fab HRP-labeled secondary antibody, diluted 1:5000 in PBS-T, was added to each well and incubated for one hour at room temperature. […] 50 microliters of TMB stop solution was added to all wells and the absorbance was read at 450 nm on a SpectraMax M5 microplate reader. Data were analyzed in the SoftMax Pro 5 software and plotted using GraphPad Prism 7 graphing software.
(§2) To determine the species cross reactivity, ELISA assays were carried out as described above.

The target of another experiment is Mouse cMET (recombinant) (mouse, UniProt P16056 25-931, limits assumed). Described as above. As to the method:
as §1, §2

For experiment [3], the target named is T2, Human cMET (recombinant, soluble monomeric) (human, UniProt P08581 25-932).
T2 construct: also called His-tagged cMET antigen
T2 sequence (P08581 25-932): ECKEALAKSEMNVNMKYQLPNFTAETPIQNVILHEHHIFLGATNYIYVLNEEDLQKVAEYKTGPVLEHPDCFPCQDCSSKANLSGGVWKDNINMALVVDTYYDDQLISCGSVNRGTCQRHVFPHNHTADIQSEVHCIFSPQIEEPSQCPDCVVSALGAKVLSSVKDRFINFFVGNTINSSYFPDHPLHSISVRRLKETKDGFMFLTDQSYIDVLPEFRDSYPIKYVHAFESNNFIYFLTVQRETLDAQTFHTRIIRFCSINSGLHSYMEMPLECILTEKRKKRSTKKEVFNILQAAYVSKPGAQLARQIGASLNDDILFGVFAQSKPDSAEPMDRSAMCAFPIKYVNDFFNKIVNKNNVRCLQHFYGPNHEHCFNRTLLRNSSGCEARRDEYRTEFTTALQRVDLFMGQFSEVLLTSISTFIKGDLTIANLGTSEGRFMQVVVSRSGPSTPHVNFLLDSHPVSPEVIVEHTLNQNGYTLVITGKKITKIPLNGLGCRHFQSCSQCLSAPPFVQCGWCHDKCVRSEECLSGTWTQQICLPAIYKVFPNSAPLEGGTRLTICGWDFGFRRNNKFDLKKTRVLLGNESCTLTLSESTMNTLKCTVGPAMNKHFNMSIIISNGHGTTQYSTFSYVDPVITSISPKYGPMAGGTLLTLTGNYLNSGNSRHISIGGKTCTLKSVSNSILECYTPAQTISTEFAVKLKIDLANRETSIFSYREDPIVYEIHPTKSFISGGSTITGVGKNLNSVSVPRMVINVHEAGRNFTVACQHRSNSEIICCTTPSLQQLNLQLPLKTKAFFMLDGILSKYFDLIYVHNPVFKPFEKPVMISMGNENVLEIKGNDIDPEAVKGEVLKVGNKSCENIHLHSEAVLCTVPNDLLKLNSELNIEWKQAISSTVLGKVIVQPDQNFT
Described as above. As to the method:
as §1, §2

Another experiment deals with T3, HER2 (Homo sapiens (Human), UniProt P04626 23-652).
T3 construct: also called EGFR HER family protein HER2
Described as above.

The target in another experiment is T4, HER3 (Homo sapiens (Human), UniProt P21860 20-643).
T4 construct: also called EGFR HER family protein HER3
The experiment is described as above.

The target of a further experiment is T5, HER4 (Homo sapiens (Human), UniProt Q15303 26-651).
T5 construct: also called EGFR HER family protein HER4
T5 sequence: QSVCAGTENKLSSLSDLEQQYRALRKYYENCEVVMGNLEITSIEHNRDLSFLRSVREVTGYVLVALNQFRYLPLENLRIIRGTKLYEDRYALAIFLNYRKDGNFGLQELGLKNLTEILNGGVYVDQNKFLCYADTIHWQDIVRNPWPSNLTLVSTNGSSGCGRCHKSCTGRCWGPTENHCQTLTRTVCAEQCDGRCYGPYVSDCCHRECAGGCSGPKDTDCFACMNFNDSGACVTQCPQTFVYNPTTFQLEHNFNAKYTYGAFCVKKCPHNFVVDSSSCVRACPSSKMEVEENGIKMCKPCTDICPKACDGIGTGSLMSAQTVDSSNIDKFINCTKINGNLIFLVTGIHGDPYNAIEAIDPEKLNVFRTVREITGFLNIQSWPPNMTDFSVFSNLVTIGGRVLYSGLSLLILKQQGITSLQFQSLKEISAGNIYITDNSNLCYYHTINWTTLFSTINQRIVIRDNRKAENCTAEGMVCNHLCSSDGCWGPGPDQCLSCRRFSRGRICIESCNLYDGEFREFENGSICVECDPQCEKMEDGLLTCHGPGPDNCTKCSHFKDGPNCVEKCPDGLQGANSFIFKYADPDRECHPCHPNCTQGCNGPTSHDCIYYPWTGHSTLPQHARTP
The description is as above.

Experiment [4] addresses T6, Human EGFR (recombinant, soluble monomeric) (human, UniProt P00533 25-645).
T6 construct: also called EGFR antigen; recombinant human EGFR
The experiment in a line: SPR (Biacore T200), antibody captured on anti-human IgG, soluble monomeric antigen as analyte, 25 C. Here is the method: (§3) Mouse anti-human IgG was immobilized on a CM4 sensor chip with a final surface density of ˜2000 resonance units (RUs). A reference flow cell surface was also prepared on this sensor chip using identical immobilization protocol. Test and control article antibodies were prepared at 5-20 nM in instrument buffer (HBS-EP buffer; 0.01M HEPES, pH 7.4, 0.15M NaCl, 3 mM EDTA, and 0.005% P-20), along with 3-fold serial dilutions of purified EGFR (0.27-200 nM human, 0.4-900 nM cyno, and 4-1000 nM murine) or cMET proteins (0.27 to 66 nM human and 0.27-22 nM cyno) in instrument buffer. A sequential approach was utilized for kinetic measurements. Antibodies were first injected over the capture surface, at a flow rate of 10 μL/minute. Once the binding of the captured antibody stabilized, a single concentration of the analyte was injected over both capture and reference surfaces, at a flow rate of 75 μL/minute. The resulting binding response curves yielded the association phase data. Following the injection of analyte, the flow was then switched back to instrument buffer for 15 minutes to permit the collection of dissociation phase data, followed by a 1-minute pulse of 10 mM glycine, pH 1.5, to regenerate the antibody-captured surface on the chip. Binding responses against test and control article antibodies were recorded from duplicate injections of each concentration of analyte. In addition, several buffer injections were interspersed throughout the injection series. Select buffer injections were used along with the reference cell responses to correct the raw data sets for injection artifacts and/or nonspecific binding interactions, commonly referred to as “double referencing”. Corrected binding data were globally fit to a 1:1 binding model (Biacore T200 Evaluation software 2.0, GE Healthcare, Pittsburgh, PA).
(§4) Kinetic measurements to soluble monomeric forms of EGFR and cMET were performed using a BIACore instrument.
For orientation: In SPR one partner is held on a chip, and binding of the other changes the refractive index at the surface.

The target in experiment [5] is T7, Cynomolgus monkey EGFR (recombinant, soluble monomeric) (cynomolgus monkey, UniProt P55245 25-645 (rhesus entry)).
T7 construct: also called cyno EGFR
Described as above. Here is the method:
as §3, §4

Experiment [6] addresses T8, Mouse EGFR (recombinant, soluble monomeric) (mouse, UniProt Q01279 25-647).
T8 construct: also called murine EGFR
The description is as above. As to the method: as §3, §4

Experiment [7] addresses T1, Cynomolgus monkey cMET (recombinant, …). Described as above. Here is the method: as §3, §4
The target in experiment [8] is T2, Human cMET (recombinant, soluble …). Described as above. As to the method:
as §3, §4

T1 sequence (A0M8R7 25-932 S170N/I621T): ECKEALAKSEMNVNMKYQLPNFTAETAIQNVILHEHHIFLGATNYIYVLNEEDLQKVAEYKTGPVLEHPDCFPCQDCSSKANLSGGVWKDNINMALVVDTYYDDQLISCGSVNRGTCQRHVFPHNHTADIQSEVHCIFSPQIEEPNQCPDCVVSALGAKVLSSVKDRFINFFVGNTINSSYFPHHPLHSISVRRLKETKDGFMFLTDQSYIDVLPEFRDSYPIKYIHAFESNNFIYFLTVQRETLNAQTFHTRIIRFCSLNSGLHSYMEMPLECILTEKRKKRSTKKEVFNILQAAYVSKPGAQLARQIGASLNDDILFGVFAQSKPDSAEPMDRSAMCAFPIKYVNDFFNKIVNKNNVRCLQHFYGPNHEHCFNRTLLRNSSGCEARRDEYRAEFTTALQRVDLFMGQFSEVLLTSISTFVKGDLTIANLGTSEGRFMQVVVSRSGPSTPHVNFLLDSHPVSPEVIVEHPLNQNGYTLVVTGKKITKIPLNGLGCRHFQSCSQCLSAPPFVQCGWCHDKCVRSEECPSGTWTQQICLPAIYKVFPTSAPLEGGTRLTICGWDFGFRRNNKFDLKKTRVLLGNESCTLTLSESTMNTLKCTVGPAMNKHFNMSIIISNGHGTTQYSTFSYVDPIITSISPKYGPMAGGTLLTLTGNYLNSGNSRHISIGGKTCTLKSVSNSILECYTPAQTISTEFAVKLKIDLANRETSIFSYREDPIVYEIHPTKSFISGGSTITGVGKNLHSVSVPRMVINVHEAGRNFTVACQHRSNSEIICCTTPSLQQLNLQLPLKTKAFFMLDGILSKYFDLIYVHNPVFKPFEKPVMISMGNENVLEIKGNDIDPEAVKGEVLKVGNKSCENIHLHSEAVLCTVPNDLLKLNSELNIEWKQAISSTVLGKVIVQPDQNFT
Chain of Mouse cMET (recombinant) (P16056 25-931 limits assumed): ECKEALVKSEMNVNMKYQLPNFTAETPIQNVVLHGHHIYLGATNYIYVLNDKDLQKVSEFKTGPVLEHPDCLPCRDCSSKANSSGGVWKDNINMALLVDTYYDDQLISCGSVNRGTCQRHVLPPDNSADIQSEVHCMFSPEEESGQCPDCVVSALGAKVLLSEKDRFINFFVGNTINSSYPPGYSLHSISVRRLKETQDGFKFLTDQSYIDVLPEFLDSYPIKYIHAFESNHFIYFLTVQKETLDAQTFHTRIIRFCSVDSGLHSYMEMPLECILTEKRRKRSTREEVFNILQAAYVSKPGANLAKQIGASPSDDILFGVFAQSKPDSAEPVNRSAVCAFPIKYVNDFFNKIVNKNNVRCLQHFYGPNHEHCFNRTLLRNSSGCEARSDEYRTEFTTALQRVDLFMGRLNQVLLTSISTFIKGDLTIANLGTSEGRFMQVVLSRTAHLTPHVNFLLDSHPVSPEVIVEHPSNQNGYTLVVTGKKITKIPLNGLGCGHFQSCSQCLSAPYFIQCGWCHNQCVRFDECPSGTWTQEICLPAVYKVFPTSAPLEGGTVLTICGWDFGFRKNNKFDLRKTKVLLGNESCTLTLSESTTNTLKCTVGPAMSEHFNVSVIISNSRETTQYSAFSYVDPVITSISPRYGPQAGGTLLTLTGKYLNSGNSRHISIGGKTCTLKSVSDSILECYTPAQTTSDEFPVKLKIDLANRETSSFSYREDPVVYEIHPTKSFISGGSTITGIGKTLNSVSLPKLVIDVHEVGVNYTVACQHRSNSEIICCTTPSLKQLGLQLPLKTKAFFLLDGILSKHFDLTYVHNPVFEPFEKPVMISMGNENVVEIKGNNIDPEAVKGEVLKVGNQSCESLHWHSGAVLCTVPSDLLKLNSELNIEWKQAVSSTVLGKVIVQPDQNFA

B1: RAA22/R347-AZ1508 (bispecific antibody, part only; not given: R347 control arm and constant regions, V domains shown, part only)
VH: QVQLVQSGAEVKKPGSSVKVSCKASGGTFSDNDFSWVRQAPGQGLEWMGAIVAVFRTETYAQKFQDRVKITADISTRTTYMELSSLRSEDTAVYYCARRLMSAISGPGAPLLMWGQGTLVTVSS
VL: QSALTQPRSVSGSPGQSVTISCTGTSSDVGGYNYVSWYQQHPGKAPKLMIYDVSKRPSGVPDRFSGSKSGNTASLTISGLQAEDEADYYCSSYTSSDTLEIFGGGTKLTVL
In [1], B1 registered an IC50, CellTiter-Glo cytotoxicity on NCI H1975 cells (FIG. 11) of 20.5 nM and a fold difference in IC50 against the bispecific EGFR-cMET ADC of 65 fold.

B2: RAA22 IgG (antibody, V domains shown)
VH: B1 VH
VL: B1 VL
notes: Bivalent parental IgG; Only the variable domains are tied to the parental IgG; also called anti-EGFR antibody clone RAA22
The Kd is the constant that tells how readily two partners part at equilibrium. The term koff denotes the first-order rate constant of dissociation. One may read the kon as the second-order rate constant of association. In the case of B2, the binding result (in [2]; in the experiment with Mouse cMET (recombinant); in [3]; with HER2; in the experiment with HER3; with HER4) was “no binding (tested: 10 ug/ml)” each time. In addition, the Kd in [4] was found to be 46.6 nM; in experiment [5], 170 nM; in experiment [6], 488 nM. Besides, the off-rate constant (koff) in experiment [4] is 0.00206 s⁻¹; in experiment [5] it was 0.00601 s⁻¹; in experiment [6], 0.019 s⁻¹. Besides, the kon was 44100 M⁻¹ s⁻¹ in [4], 35400 M⁻¹ s⁻¹ in experiment [5] and 40300 M⁻¹ s⁻¹ in [6].

B3: QD6/B09-57 DuetMab (bispecific antibody, human IgG1, kappa, lambda)
heavy 1: QVQLVQSGAEVKKPGSSVKVSCKASGGTFSDNDFSWVRQAPGQGLEWMGAIVAVVRTETYAQKFQDRVKITADISTRTTYMELSSLRSEDTAVYYCARRLMSAISGPGAPLLMWGQGTLVTVSSASTKGPSVFPLAPSSKSTSGGTAALGCLVKDYFPEPVTVSWNSGALTSGVHTFPAVLQSSGLYSLSSVVTVPSSSLGTQTYICNVNHKPSNTKVDKRVEPKSCDKTHTCPPCPAPELLGGPSCVFLFPPKPKDTLMISRTPEVTCVVVDVSHEDPEVKFNWYVDGVEVHNAKTKPREEQYNSTYRVVSVLTVLHQDWLNGKEYKCKVSNKALPAPIEKTISKAKGQPREPQVCTLPPSREEMTKNQVSLSCAVKGFYPSDIAVEWESNGQPENNYKTTPPVLDSDGSFFLVSKLTVDKSRWQQGNVFSCSVMHEALHNHYTQKSLSLSPGK
light 1: QSALTQPRSVSGSPGQSVTISCTGTSSDVGGYNYVSWYQQHPGKAPKLMIYDVSERPSGVPDRFSGSKSGNTASLTISGLQAEDEADYYCFSYTSSDTLEIFGGGTKLTVLGQPKAAPSVTLFPPSSEELQANKATLVCLISDFYPGAVTVAWKADSSPVKAGVETTTPSKQSNNKYAASSYLSLTPEQWKSHRSYSCQVTHEGSTVEKTVAPTECS
heavy 2: QVQLVQSGAEVKKPGASVKVSCKASGYTFTDYYIHWVRQATGQGLEWMGWMNPNSGNTGYAQKFQGRVTMTRDTSISTAYMELSSLRSEDTAVYYCARGQGYTHSWGQGTMVTVSSASTKGPSVCPLAPSSKSTSGGTAALGCLVKDYFPEPVTVSWNSGALTSGVHTFPAVLQSSGLYSLSSVVTVPSSSLGTQTYICNVNHKPSNTKVDKRVEPKSVDKTHTCPPCPAPELLGGPSCVFLFPPKPKDTLMISRTPEVTCVVVDVSHEDPEVKFNWYVDGVEVHNAKTKPREEQYNSTYRVVSVLTVLHQDWLNGKEYKCKVSNKALPAPIEKTISKAKGQPREPQVYTLPPCREEMTKNQVSLWCLVKGFYPSDIAVEWESNGQPENNYKTTPPVLDSDGSFFLYSKLTVDKSRWQQGNVFSCSVMHEALHNHYTQKSLSLSPG
light 2: DIQMTQSPSTLSASVGDRVTITCRASEGIYHWLAWYQQKPGKAPKLLIYKASSLASGVPSRFSGSGSGTEFTLTISSLQPDDFATYYCQQYSNYPPTFGGGTKLEIKRTVAAPSVFIFPPCDEQLKSGTASVVCLLNNFYPREAKVQWKVDNALQSGNSQESVTEQDSKDSTYSLSSTLTLSKADYEKHKVYACEVTHQGLSSPVTKSFNRGEV
notes: Monovalent bispecific IgG1 DuetMab with cysteine insertion after Ser239; Labelled with AlexaFluor-647 in the microscopy experiments; also called QD06/B09-57; bispecific EGFR/cMET DuetMAb
For the molecule B3, the binding result in the experiment with Mouse cMET (recombinant), with HER2, with HER3 and in the experiment with HER4 was “no binding (tested: 10 ug/ml)” each time. Further, the Kd in experiment [7] worked out at 2.2 nM; in experiment [4], 5.9 nM; in experiment [5], 2.8 nM; in experiment [6], 6.2 nM; in experiment [8] it was 1.6 nM. For the same molecule, the koff in experiment [7] came out at 0.00206 s⁻¹; in [4], 0.000374 s⁻¹; in [5], 0.000585 s⁻¹; in [6], 0.00078 s⁻¹; in [8] it was 0.000696 s⁻¹. Also, the kon in [7] was 958000 M⁻¹ s⁻¹; in experiment [4], 63500 M⁻¹ s⁻¹; in [5], 210000 M⁻¹ s⁻¹; in experiment [6], 126000 M⁻¹ s⁻¹; in experiment [8] it was 425000 M⁻¹ s⁻¹.

These data come from patent US20240360226A1 (AstraZeneca / MedImmune, published 2024).
